Assay results published in the supplement of paper PMC12764529.
± gives the half width of the 95% confidence interval.

Columns and labels:
[1] = folding stability dG unfold (combined trypsin and chymotrypsin); higher = more stable
Method in brief: (§1)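 Designed mini-proteins with no cysteine and under 80 residues were kept only if AlphaFold2 dimer inter-PAE was above 15. In a PA-tagged cDNA display construct, they were digested with trypsin and chymotrypsin and then sequenced. K50 was inferred by Bayesian fitting of counts, and unfolding free energy was derived per protease or combined against a sequence-predicted unfolded-state K50 and a shared folded-state K50.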

[2] = folding stability dG unfold from chymotrypsin proteolysis; higher = more stable
Method in brief: as §1

[3] = folding stability dG unfold from trypsin proteolysis; higher = more stable
Method in brief: as §1

Row | Sequence | folding stability dG unfold [1] | folding stability dG unfold [2] | folding stability dG unfold [3]
1 | SAGGSAKPELVKKLKEALEEEFPDLKVEVVKVDKKNKKIYIKVKSEEEKKRIAELLKKLGIEVEIESAGGSA [r15_196_TrROS_Hall] | 3.18 ± 0.21 kcal/mol | 3.33 ± 0.079 kcal/mol | 3.06 ± 0.25 kcal/mol
2 | SAGGSAKPKIKINIFYPKDGQWYVMIQDPGGEEVMGPWDDIDKIIEAGIPADDVEIEWMPMPPGQFSAGGSA [r15_955_TrROS] | 1.09 ± 0.05 kcal/mol | 1.15 ± 0.048 kcal/mol | 1.03 ± 0.014 kcal/mol
3 | SAGGSAKPKIKITITRNEDGSLLVRITLPDGREVELSVDDIKALEDAGINLDDVEITEVEVSPEDLSAGGSA [r15_955_TrROS_Hall] | 3.36 ± 0.13 kcal/mol | 2.71 ± 0.067 kcal/mol | 3.92 ± 0.12 kcal/mol
4 | SAGGSAKPKRFVALIKLKGPEGKEIAEIPIVISPDKPEVDIDEIAREIAEKLGVEEIEAEIKEIEESAGGSA [r15_333_TrMRF] | 0.498 ± 0.28 kcal/mol | 0.633 ± 0.2 kcal/mol | 0.48 ± 0.13 kcal/mol
5 | SAGGSAKPKVEVEIVDVEFEEVEVNGKKYLVMKMKVKLKETGEYIEVTMVFDLKTNKMYIEVKKLPSAGGSA [r15_528_TrROS_Hall] | 5.17 ± 0.43 kcal/mol | 5.09 ± 0.24 kcal/mol | 3.49 ± 0.29 kcal/mol
6 | SAGGSAKRKVEIEIVLSAEELEEAIKEGKPLSEELQKRIEELLKKAEEAGIDEVRIRIVPPGLPEPSAGGSA [r15_304_TrROS_Hall] | 1.16 ± 0.12 kcal/mol | 1.22 ± 0.036 kcal/mol | 0.89 ± 0.089 kcal/mol
7 | SAGGSAKRKVEIEIYISREELEEAKKNGKEPTAEAQKQIHRIAKRAREEGMDTVEIKIIPPGQPIPSAGGSA [r15_304_TrROS] | 0.309 ± 0.28 kcal/mol | 0.785 ± 0.18 kcal/mol | -0.0963 ± 0.34 kcal/mol
8 | SAGGSAKTISIIIPFKGLTPEQAIEIAKELEKLLGTKAKIESIPGKGYILVTLELPNKTSYIIIPGSAGGSA [r15_168_TrMRF] | 2 ± 0.053 kcal/mol | 2.08 ± 0.039 kcal/mol | 1.81 ± 0.041 kcal/mol
9 | SAGGSAKTVTVEVTLEDGTKITVTVPEDMSEEERKALAQELAEELREKLRQLRELEKEGKEVRIEPSAGGSA [r15_704_TrROS_Hall] | 2.23 ± 0.051 kcal/mol | 2.72 ± 0.042 kcal/mol | 1.02 ± 0.023 kcal/mol
10 | SAGGSAKVIMFPSLEEALDLAKEAMGHGKPIQIFLPDGYMIEIEVKPDPDGKPKIDIKWRKLPPDDSAGGSA [r15_761_TrROS] | 2.55 ± 0.21 kcal/mol | 2.8 ± 0.074 kcal/mol | 2.02 ± 0.13 kcal/mol
11 | SAGGSAKVIRVKSLEEALKLAEEAKKAGLEVEIKLLPDGSVLITVKPKPKPKVKKVEKKVKLPEGKSAGGSA [r15_761_TrROS_Hall] | 1.36 ± 0.15 kcal/mol | 1.96 ± 0.077 kcal/mol | 0.507 ± 0.074 kcal/mol
12 | SAGGSAKVKIEVIELPPGMTEEELRKLAEEKGLKVEKVDKENLLVKITAKSKEEAEKIKKELEEKLSAGGSA [r15_546_TrROS_Hall] | 0.511 ± 0.27 kcal/mol | 0.748 ± 0.13 kcal/mol | 0.449 ± 0.14 kcal/mol
13 | SAGGSAKVKYKKDKNGNTYPVVEEKKKIKLTVKIKIFDKNGKLVKEITFPANMTLEEIEKEIKKLLSAGGSA [r15_309_TrROS_Hall] | 1.61 ± 0.18 kcal/mol | 1.79 ± 0.11 kcal/mol | 1.16 ± 0.11 kcal/mol
14 | SAGGSAKVVEKDGKLVIELEVPPDMSEEELKKLAEELAKLLPPGAKIEVKYDKETKRVVIVVELKDSAGGSA [r15_210_TrROS_Hall] | 1.79 ± 0.14 kcal/mol | 1.79 ± 0.16 kcal/mol | 1.64 ± 0.12 kcal/mol
15 | SAGGSAKYYYIVAEIDLPNKKVRFVKKVKKGDVEKFKAEIKKAFPGKKIKVKVIEFESEEEAKKAASAGGSA [r15_889_TrMRF] | 4.01 ± 0.088 kcal/mol | 4.373 ± 0.043 kcal/mol | 3.13 ± 0.14 kcal/mol
16 | SAGGSALADRIAELARELGFEPVEIRYDPETGEVYALVRKPGGLLLRMRVEVDDDELHIEIEPLTDSAGGSA [r15_561_TrMRF] | 5.18 ± 0.095 kcal/mol | 5.27 ± 0.058 kcal/mol | 4.34 ± 0.1 kcal/mol
17 | SAGGSALADRIKEIARENGFEPESVQFDPGNGHLMISIEPPDGRGVVVQIDIDNNNLKIQIQPLDDSAGGSA [r15_561_TrROS] | 1.03 ± 0.13 kcal/mol | 0.792 ± 0.099 kcal/mol | 1.2 ± 0.075 kcal/mol
18 | SAGGSALRIPPGEKIKVRNPDNGKPFEFKVTNWQMNPNGNAYFQVEMTSDGKKVKWPIPLDDIEVVSAGGSA [r15_62_TrROS] | 0.0757 ± 0.28 kcal/mol | 0.358 ± 0.37 kcal/mol | -0.397 ± 0.21 kcal/mol
19 | SAGGSAMAPNVRPIPIFIDVPAEPFTRDPDGRIGLTPEELARRLAEEIRARTGAPIDTIVVHFHEPSAGGSA [r15_415_TrMRF] | 0.409 ± 0.092 kcal/mol | -0.0348 ± 0.18 kcal/mol | 0.773 ± 0.11 kcal/mol
20 | SAGGSAMAYLVRAELEVEGPDGRRERLELVLVAEDLPLEEALAAAREAAAELGAELVSVEVEPLEPSAGGSA [r15_550_TrMRF] | 2.21 ± 0.098 kcal/mol | 2.55 ± 0.039 kcal/mol | 0.858 ± 0.061 kcal/mol
21 | SAGGSAMESFLGAAKEVLSQMEPGEIVLLPLERPDDKPLLVLLDPTTRRLVVFYPDGGYEEFDFPESAGGSA [r15_977_TrMRF] | 2.86 ± 0.079 kcal/mol | 2.9 ± 0.064 kcal/mol | 2.74 ± 0.046 kcal/mol

Row | Sequence | folding stability dG unfold [1] | folding stability dG unfold [2] | folding stability dG unfold [3]
22 | SAGGSAMFKSPSDKYFEPIAVIDLEKASPETLKALLEENPGKLLVIPKSTGKPRLIPAEELLELLGSAGGSA [r15_904_TrMRF] | 0.0646 ± 0.2 kcal/mol | -0.154 ± 0.41 kcal/mol | 0.0892 ± 0.21 kcal/mol
23 | SAGGSAMFVVVEVESPEELRELVEEEDPSVFLLPTEDGEERLVVVDPENPENIRVIPLERPELLAPSAGGSA [r15_11_TrMRF] | 0.27 ± 0.068 kcal/mol | -0.285 ± 0.27 kcal/mol | 0.535 ± 0.042 kcal/mol
24 | SAGGSAMGTLRLGFVTGPDEEGRYEILDVTLEPGEPVLVTLRARFTFPDGDSVEVPFRFVVPPELLSAGGSA [r15_187_TrMRF] | 2.96 ± 0.12 kcal/mol | 3.15 ± 0.048 kcal/mol | 2.78 ± 0.038 kcal/mol
25 | SAGGSAMIEIEINGKKYKIEIVKVEEKDGKVKVKIKIKDKETGKEIEIEIEMPKEELEKLLKEILSSAGGSA [r15_944_TrROS_Hall] | 3.65 ± 0.48 kcal/mol | 3.97 ± 0.28 kcal/mol | 2.79 ± 0.27 kcal/mol
26 | SAGGSAMIKIKLPNGEVAEIELSPDGKKVLIRYKDGSIEEIEIKDGKITKIKPLPNAPPNAEIVEVSAGGSA [r15_709_TrROS_Hall] | 2.47 ± 0.077 kcal/mol | 2.72 ± 0.041 kcal/mol | 1.92 ± 0.029 kcal/mol
27 | SAGGSAMITLEVEVPPGNAEEAAEAVAEELAEKLGVEVTIEKVEVEYDPVTNLTRVPVEIKINPPLSAGGSA [r15_70_JUSTAS] | 0.618 ± 0.24 kcal/mol | 0.557 ± 0.11 kcal/mol | 1.18 ± 0.071 kcal/mol
28 | SAGGSAMITVDPGEKTVTVEIDLPVYKSYTYPGGETKAYPLELPEEEAKKVADEIAEAFKKKLEGESAGGSA [r15_365_JUSTAS] | 0.134 ± 0.24 kcal/mol | 0.49 ± 0.25 kcal/mol | -0.499 ± 0.25 kcal/mol
29 | SAGGSAMITVKLEGKPVTVEILSREPKGRLVKAQAVVHRPDDGTEKTVSGLLSEEEIEKAIEEALASAGGSA [r15_944_JUSTAS] | -0.15 ± 0.12 kcal/mol | 0.143 ± 0.11 kcal/mol | -0.917 ± 0.32 kcal/mol
30 | SAGGSAMKGLSVERVELDGEEVVRIEIETPAGGSETLELSLRDPEAVEAYLAALKAAGVIAEILPESAGGSA [r15_575_JUSTAS] | 1.11 ± 0.14 kcal/mol | 0.713 ± 0.11 kcal/mol | 1.24 ± 0.027 kcal/mol
31 | SAGGSAMKIEITVEKNENGELTITVKIYDKNGKLVKEIKLKVKTEEEAKKALKELAEKLGIEVEPESAGGSA [r15_242_TrROS_Hall] | 3.36 ± 0.44 kcal/mol | 3.67 ± 0.16 kcal/mol | 2.03 ± 0.48 kcal/mol
32 | SAGGSAMKKIKIEVEKKGDEYIVRIKIKNPDGKIEEIEIKLKDEEEAKKLAEELLKEGKIDEIELESAGGSA [r15_575_TrROS_Hall] | 2.57 ± 0.18 kcal/mol | 2.29 ± 0.077 kcal/mol | 2.7 ± 0.18 kcal/mol
33 | SAGGSAMKKTITVTLSYPETGETRTVTVELTDIPESDPEKWKALAEEVAEALAKERGAEVLGIEISSAGGSA [r15_1013_JUSTAS] | 4.72 ± 0.065 kcal/mol | 4.6 ± 0.066 kcal/mol | 4.9 ± 0.14 kcal/mol
34 | SAGGSAMKKTTATFYVRPDSLTVEIELGEKTKKLTFDPSVSIEEVKASLPDYVDEVKVKPASPSLSSAGGSA [r15_1058_JUSTAS] | 0.242 ± 0.14 kcal/mol | 0.529 ± 0.27 kcal/mol | -0.43 ± 0.24 kcal/mol
35 | SAGGSAMKKVTVTVKFPDGTTYTFDMDTESEEEFEKKVREEALKRFPDIPLEDVEVTEVVVTPELLSAGGSA [r15_220_JUSTAS] | 2.33 ± 0.12 kcal/mol | 2.38 ± 0.039 kcal/mol | 2.3 ± 0.16 kcal/mol
36 | SAGGSAMKLVLTFPEGLPEIPLEELAKAIEDALPEDFEVKEIKVEPLPDGGLRLTFIVNDEEVEILSAGGSA [r15_451_TrMRF] | 2.54 ± 0.048 kcal/mol | 2.52 ± 0.017 kcal/mol | 2.52 ± 0.062 kcal/mol
37 | SAGGSAMKPGEPVEFNIMIKIRDPNGKPVGEIDIKVEYPKGQSESQMFDRARNEINNLAPEGHLEISAGGSA [r15_310_TrROS] | 0.396 ± 0.14 kcal/mol | 0.486 ± 0.21 kcal/mol | 0.0892 ± 0.087 kcal/mol
38 | SAGGSAMKVIRIRPDDPRVKELLKKLEDAGYEVRYDEETGELYVTLPDGKVLKFKSLEELKKAGFESAGGSA [r15_94_TrROS_Hall] | 1.93 ± 0.088 kcal/mol | 2.19 ± 0.1 kcal/mol | 1.63 ± 0.029 kcal/mol
39 | SAGGSAMKVVFYGDEASQKEIAEKAKKEGIEYEAYPGSREEILAYVKENYPDVKMIVYPEGKEYLISAGGSA [r15_712_JUSTAS] | 0.179 ± 0.073 kcal/mol | 0.094 ± 0.18 kcal/mol | 0.0902 ± 0.072 kcal/mol
40 | SAGGSAMPADEVVEVREITDPATGKKVTVVRNKETGRYFVRVENPDGETEVFEVPGMTAEELEELASAGGSA [r15_295_TrROS_Hall] | 2.51 ± 0.1 kcal/mol | 2.6 ± 0.051 kcal/mol | 2.33 ± 0.056 kcal/mol
41 | SAGGSAMPGMTLQELLDAIRALLPPGARARIYVRNPDGEVIELTDLDDITVEDLENAEIRIEIEPVSAGGSA [r15_144_TrROS_Hall] | 3.88 ± 0.076 kcal/mol | 4.01 ± 0.052 kcal/mol | 3.7 ± 0.1 kcal/mol
